Test [1] deals with RSV A2 prefusion-stabilized F glycoprotein variant DS-Cav1 (respiratory syncytial virus strain A2). The test is described as follows: cryo-EM structure.
The target of test [2] is RSV B18537 prefusion-stabilized F glycoprotein variant sc9-10 DS-Cav1 (respiratory syncytial virus strain B18537). Kind of test: cryo-EM structure.
The target in test [3] is h5B11-YTE, h5B11 with the YTE mutation (M252Y/S254T/T256E) in the Fc region (human). The test is described as follows: SPR. Background: SPR reads the build-up and loss of mass on a sensor chip optically.
The target in test [4] is T1, RSV B18537 prefusion-stabilized F glycoprotein variant DS-Cav1 (Human respiratory syncytial virus B, …, stabilised).
T1 chain 1: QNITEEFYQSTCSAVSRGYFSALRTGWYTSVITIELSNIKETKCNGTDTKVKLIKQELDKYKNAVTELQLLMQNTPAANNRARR
T1 chain 2: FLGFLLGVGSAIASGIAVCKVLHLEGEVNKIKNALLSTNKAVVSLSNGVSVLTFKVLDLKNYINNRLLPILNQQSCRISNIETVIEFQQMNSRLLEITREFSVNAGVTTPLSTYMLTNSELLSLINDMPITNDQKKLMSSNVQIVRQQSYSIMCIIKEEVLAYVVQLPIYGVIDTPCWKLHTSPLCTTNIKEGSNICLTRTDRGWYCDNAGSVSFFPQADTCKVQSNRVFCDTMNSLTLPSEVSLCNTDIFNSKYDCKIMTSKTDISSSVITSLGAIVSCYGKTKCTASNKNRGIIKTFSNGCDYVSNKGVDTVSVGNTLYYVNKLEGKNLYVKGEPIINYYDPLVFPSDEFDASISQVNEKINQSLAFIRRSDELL
Kind of test: SPR.

The target in test [5] is RSV B18537 post-fusion F protein (Human respiratory syncytial virus B, …, UniProt P13843). The test is described as follows: ELISA.
Sequence of RSV B18537 post-fusion F protein (P13843 whole entry, looked up, the tested form may be a part, one chain of several): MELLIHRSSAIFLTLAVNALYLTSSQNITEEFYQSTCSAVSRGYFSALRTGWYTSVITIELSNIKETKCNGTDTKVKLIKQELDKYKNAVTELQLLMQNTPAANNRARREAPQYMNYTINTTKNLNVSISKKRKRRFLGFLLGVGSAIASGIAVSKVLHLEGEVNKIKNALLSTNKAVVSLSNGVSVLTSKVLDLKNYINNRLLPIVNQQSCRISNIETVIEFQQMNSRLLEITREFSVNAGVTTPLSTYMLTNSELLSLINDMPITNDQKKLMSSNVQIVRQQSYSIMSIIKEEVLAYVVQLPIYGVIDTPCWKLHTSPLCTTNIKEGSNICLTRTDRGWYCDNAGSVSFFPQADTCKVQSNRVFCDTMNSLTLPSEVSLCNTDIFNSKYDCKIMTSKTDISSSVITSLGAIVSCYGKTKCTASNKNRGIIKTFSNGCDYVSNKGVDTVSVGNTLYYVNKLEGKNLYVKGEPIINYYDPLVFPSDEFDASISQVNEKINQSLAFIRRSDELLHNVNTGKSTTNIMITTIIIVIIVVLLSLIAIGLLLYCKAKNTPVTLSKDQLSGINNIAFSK
Test [6] concerns the target RSV A2 post-fusion F protein (Human respiratory syncytial virus A, …, UniProt P03420). The test is described as follows: ELISA. A general note: In an ELISA, binding on a coated surface is turned into a signal by an enzyme label.
Test [7] deals with RSV B18537 prefusion-stabilized F glycoprotein variant DS-Cav1 (respiratory syncytial virus strain B18537).
The target is the same in test [8]. Kind of test: SPR.

Sequence of RSV A2 post-fusion F protein (P03420 whole entry, looked up, the tested form may be a part): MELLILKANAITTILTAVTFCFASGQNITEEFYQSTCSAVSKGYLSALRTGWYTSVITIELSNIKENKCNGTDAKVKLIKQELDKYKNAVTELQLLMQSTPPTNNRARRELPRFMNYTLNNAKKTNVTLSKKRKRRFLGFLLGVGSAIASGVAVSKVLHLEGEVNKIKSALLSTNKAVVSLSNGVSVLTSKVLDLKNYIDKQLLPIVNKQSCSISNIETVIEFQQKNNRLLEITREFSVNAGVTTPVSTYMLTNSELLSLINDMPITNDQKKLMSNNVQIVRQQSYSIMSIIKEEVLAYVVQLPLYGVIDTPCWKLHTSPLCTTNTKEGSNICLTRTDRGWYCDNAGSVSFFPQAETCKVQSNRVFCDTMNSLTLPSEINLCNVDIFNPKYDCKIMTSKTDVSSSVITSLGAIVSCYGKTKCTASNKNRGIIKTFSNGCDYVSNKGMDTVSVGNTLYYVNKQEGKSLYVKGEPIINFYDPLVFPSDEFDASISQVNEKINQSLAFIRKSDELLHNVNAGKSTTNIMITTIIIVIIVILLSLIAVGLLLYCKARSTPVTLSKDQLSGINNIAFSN

On to “RSV A2 prefusion-stabilized F glycoprotein variant DS-Cav1 (natural protein)”, for which the stoichiometry N in test [1] came to 3.
In the case of “RSV B18537 prefusion-stabilized F glycoprotein variant sc9-10 DS-Cav1 (natural protein)”, the stoichiometry N in test [2] was 3.
In test [3], “human neonatal FcR (hFcRn) (from UniProt P55899;P61769) (receptor)” displayed a fold increase in affinity over h5B11-WT of 8 fold.

B1: 5B11 Fab (antigen-binding fragment of murine 5B11) (Fab, V domains shown)
VH: QIQLVQSGPELKKPGETVKISCKASGYTFTDYSMHWLKQAPGKGLKWMGWITTETGEPTYADDFKGRFAFSLETSASTAYLQINNLKNEDTGIYFCARYYYGPFYWGQGTLVTVST
VL: DIQMTQSPASLSASVGETVTITCRSSGNIHNFLTWYQQKQGKSPQFLVYNAKTLADGVSSRFSGSGSGTQFSLKINSLQPEDFGIYYCQHFWTTPYTFGGGTKLEIK
B1 yielded a Kd in test [4] of 0.124 nM.

B2: 5B11, murine monoclonal antibody (mouse IgG2a, kappa) (antibody, V domains shown)
VH: QIQLVQSGPELKKPGETVKISCKASGYTFTDYSMHWLKQAPGKGLKWMGWITTETGEPTYADDFKGRFAFSLETSASTAYLQINNLKNEDTGIYFCARYYYGPFYWGQGTLVTVST
VL: DIQMTQSPASLSASVGETVTITCRSSGNIHNFLTWYQQKQGKSPQFLVYNAKTLADGVSSRFSGSGSGTQFSLKINSLQPEDFGIYYCQHFWTTPYTFGGGTKLEIK
On to B2, for which the binding result in test [5] and in test [6] was “no binding” each time.

B3: h5B11, humanized version of 5B11 (human IgG1, kappa) (antibody, V domains shown)
VH: QIQLVQSGPELKKPGASVKISCKASGYTFTDYSMHWLKQAPGKGLKWMGWITTETGEPTYADDFKGRFAFSLDTSASTAYLQISSLKAEDTGVYFCARYYYGPFYWGQGTLVTVSS
VL: DIQMTQSPSSLSASVGDRVTITCRSSGNIHNFLTWYQQKPGKSPQFLVYNAKTLADGVPSRFSGSGSGTQFTLTISSLQPEDFGIYYCQHFWTTPYTFGGGTKVEIK
On to B3, for which the binding result in test [5] and in test [6] was “no binding” each time.

B4: nirsevimab (biosimilar, human IgG1, kappa) (antibody, V domains shown)
VH: QVQLVQSGAEVKKPGSSVMVSCQASGGLLEDYIINWVRQAPGQGPEWMGGIIPVLGTVHYGPKFQGRVTITADESTDTAYMELSSLRSEDTAMYYCATETALVVSETYLPHYFDNWGQGTLVTVSS
VL: DIQMTQSPSSLSAAVGDRVTITCQASQDIVNYLNWYQQKPGKAPKLLIYVASNLETGVPSRFSGSGSGTDFSLTISSLQPEDVATYYCQQYDNLPLTFGGGTKVEIK
In the case of B4, the plaque reduction neutralization of RSV B18537, IC50 in test [7] stood at 0.0285 mg/L.

B5: nirsevimab Fab (Fab, V domains shown)
VH: QVQLVQSGAEVKKPGSSVMVSCQASGGLLEDYIINWVRQAPGQGPEWMGGIIPVLGTVHYGPKFQGRVTITADESTDTAYMELSSLRSEDTAMYYCATETALVVSETYLPHYFDNWGQGTLVTVSS
VL: DIQMTQSPSSLSAAVGDRVTITCQASQDIVNYLNWYQQKPGKAPKLLIYVASNLETGVPSRFSGSGSGTDFSLTISSLQPEDVATYYCQQYDNLPLTFGGGTKVEIK
Molecule B5 had a Kd in test [8] greater than 800 nM.

What is called stoichiometry N is the number of molecules, sites or subunits per partner or assembly. In general, Kd refers to the free concentration of one partner at which half of the binding sites on the other are occupied at equilibrium, for simple one-to-one binding.
